One data set concerns the target Msx2 (UniProt Q03358 1-267). Description: EMSA. (In general: A gel shift assay detects complexes by their altered migration in electrophoresis.)
A further data set has as its target Dlx2 (UniProt P40764 1-332). Description: EMSA.

Chain of Dlx2 (P40764 whole entry): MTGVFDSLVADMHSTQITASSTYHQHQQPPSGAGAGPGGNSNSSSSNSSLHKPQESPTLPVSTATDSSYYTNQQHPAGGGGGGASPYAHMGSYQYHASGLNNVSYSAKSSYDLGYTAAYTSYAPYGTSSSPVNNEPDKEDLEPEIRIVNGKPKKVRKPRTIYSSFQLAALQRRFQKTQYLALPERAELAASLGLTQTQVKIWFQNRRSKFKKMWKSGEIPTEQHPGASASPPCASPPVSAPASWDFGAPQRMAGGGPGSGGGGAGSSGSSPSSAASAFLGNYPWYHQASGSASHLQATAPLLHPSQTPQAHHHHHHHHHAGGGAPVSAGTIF
Chain of Msx2 (Q03358 whole entry): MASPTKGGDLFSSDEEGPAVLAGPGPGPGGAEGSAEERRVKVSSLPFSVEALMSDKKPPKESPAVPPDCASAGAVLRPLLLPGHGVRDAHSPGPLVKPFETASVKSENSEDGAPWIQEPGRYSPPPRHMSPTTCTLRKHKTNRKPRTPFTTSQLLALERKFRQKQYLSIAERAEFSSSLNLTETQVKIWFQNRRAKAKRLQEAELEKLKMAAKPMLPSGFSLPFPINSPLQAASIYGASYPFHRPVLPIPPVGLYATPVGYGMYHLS

B1: Msx2 promoter Dlx2 site probe (dsDNA)
DNA 1: GATCCGGGTAGAGATTAGTTGAATATCCCTTGGGGATC
DNA 2: GATCCCCAAGGGATATTCAACTAATCTCTACCCGGATC
For B1, the binding result with Msx2 and with Dlx2 was “binds” in each case.
